# Source: patent publication US20170233495A1 (CALYPSO BIOTECH, published 2017)
# Residue numbers refer to the chain shown, from its start.
# B1: F20-VH-GL1/B03-VL-GL1c (antibody, human IgG4, V domains shown)
# VH: EVQLVESGGGLVQPGRSLRLSCAASGFTFNDYPMHWVRQAPGKGLEWVSGISSNSGSVGYADSVKGRFTISRDNAKNSLYLQMNSLRAEDTALYYCARDKIYYGSGSYDFYYYYGMDVWGQGTTVTVSS
# VL: SSELTQDPAVSVALGQTVRITCQGDSLRSYYASWYQQKPGQAPVVVIYGKNNRPSGIPDRFSGSSSGNTVSLTITGAQAEDEADYYCQSRDNIGNHRVVLFGGGTKLTVL
# B2: F20-VH-GL1-V1-V9-V14/B03-VL-GL1c (antibody, human IgG4 S228P, V domains shown)
# VH: B1 VH with N54Q, D62E, M116I
# VL: B1 VL
# B3: F20-VH-GL1/B08-VL-GL6c (antibody, human IgG4, V domains shown)
# VH: B1 VH
# VL: QSALTQPASVSGSPGQSITISCTGTSNDVGAYNRVSWYQQHPGKAPKLMIYGVSNRPSGVSNRFSGSKSGNTASLTISGLQAEDEADFYCTSYSSSTTSYVVFGGGTKVTVL
# B4: F20-VH-GL1-V4-V9-V14/B03-VL-GL1c (antibody, human IgG4 S228P, V domains shown)
# VH: B1 VH with N54R, D62E, M116I
# VL: B1 VL
# B5: F20-VH-GL1-V1-V9-V14/B08-VL-GL6c (antibody, human IgG4 S228P, V domains shown)
# VH: B1 VH with N54Q, D62E, M116I
# VL: B3 VL
# B6: F20-VH-GL1-V4-V9-V14/B08-VL-GL6c (antibody, human IgG4 S228P, V domains shown)
# VH: B1 VH with N54R, D62E, M116I
# VL: B3 VL
# B7: F20-VH-GL1-V1-V9/B08-VL-GL6c (antibody, human IgG4 S228P, V domains shown)
# VH: B1 VH with N54Q, D62E
# VL: B3 VL
# B8: F20-VH-GL1-V4-V9/B08-VL-GL6c (antibody, human IgG4 S228P, V domains shown)
# VH: B1 VH with N54R, D62E
# VL: B3 VL
# notes: The light chain constant region is not tied to it; also called F20-VH/B08-VLc variant; F20-VH/B08-VLc
# B9: comparative antibody 1 (antibody known as AB0041) (antibody, human IgG4 S228P, kappa, V domains shown)
# VH: QVQLKESGPGLVAPSQSLSITCTVSGFSLLSYGVHWVRQPPGKGLEWLGVIWTGGTTNYNSALMSRLSISKDDSKSQVFLKMNSLQTDDTAIYYCARYYYGMDYWGQGTSVTVSS
# VL: DIVMTQSHKFMSTSVGDRVSITCKASQDVRNTVAWYQQKTGQSPKLLIYSSSYRNTGVPDRFTGSGSGTDFTFTISSVQAEDLAVYFCQQHYITPYTFGGGTKLEIKR
# notes: also called anti-MMP9 comparative antibody 1
# Target: rat proMMP9 (rat, UniProt P50282 20-708)
# Assay: cell-based or functional assay
# rat proMMP9, sequence (P50282 20-708): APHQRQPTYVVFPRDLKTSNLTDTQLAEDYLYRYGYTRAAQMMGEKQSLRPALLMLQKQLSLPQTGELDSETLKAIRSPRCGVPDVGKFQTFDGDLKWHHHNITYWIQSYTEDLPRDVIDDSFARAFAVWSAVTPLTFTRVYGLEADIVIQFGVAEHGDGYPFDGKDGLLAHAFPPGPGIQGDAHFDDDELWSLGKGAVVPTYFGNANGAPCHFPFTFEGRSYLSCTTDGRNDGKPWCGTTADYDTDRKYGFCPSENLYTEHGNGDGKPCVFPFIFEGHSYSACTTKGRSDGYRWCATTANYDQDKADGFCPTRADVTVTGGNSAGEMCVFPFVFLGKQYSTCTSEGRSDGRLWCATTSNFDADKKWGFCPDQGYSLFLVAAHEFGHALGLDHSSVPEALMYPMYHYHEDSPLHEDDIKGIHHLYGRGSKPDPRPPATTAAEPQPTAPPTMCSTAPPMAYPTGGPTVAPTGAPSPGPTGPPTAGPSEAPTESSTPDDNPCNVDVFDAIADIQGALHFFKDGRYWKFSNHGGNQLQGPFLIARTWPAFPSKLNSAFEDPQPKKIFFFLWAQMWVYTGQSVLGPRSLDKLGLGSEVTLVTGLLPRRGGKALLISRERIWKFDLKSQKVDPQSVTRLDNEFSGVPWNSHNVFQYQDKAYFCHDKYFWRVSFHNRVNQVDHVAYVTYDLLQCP
Binder,"Efficacy, MMP3/MMP9 gelatin assay [%]","IC50 (nM), MMP3/MMP9 gelatin assay [nM]"
B1,100,4.99
B2,100,8.82
B3,100,17.4
B4,100,2.83
B5,100,12.3
B6,100,6.19
B7,100,7.77
B8,100,3.16

# Target: T1, neutrophil-derived human dimeric MMP9 (human, UniProt P14780 20-707)
# Assay: cell-based or functional assay
# T1 sequence (P14780 20-707): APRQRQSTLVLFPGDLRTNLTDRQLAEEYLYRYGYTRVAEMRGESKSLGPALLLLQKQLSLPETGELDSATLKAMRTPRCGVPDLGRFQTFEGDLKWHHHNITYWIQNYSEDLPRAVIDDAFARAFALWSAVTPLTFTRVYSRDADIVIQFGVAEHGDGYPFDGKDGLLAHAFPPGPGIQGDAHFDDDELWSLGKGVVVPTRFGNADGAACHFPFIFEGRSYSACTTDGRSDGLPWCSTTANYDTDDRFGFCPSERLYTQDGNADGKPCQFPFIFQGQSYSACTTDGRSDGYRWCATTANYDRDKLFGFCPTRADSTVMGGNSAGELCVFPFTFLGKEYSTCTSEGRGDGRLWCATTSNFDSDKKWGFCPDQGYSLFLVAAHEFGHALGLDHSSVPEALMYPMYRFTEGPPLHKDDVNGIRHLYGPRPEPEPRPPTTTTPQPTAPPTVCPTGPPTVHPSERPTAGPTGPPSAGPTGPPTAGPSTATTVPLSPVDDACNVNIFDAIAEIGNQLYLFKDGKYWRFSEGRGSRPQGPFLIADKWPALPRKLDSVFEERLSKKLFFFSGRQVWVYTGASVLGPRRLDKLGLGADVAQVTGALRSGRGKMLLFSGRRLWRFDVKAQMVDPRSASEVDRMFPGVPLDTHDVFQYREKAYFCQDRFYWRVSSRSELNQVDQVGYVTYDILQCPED
Binder,"efficacy of inhibition, MMP3/MMP9 assay with neutrophil-derived MMP9 [%]","efficacy of neutralisation, APMA-activated neutrophil-derived MMP9, OmniMMP RED cleavage [%]"
B8,100,100
B9,25,–

# Target: T2, neutrophil-derived human NGAL/MMP9 complex (human, UniProt P80188 21-198)
# Assay: cell-based or functional assay
# T2 sequence (chain, as listed by the source limits assumed, chain 1 of 2): as the sequence (P14780 20-707) above
# T2 sequence (P80188 21-198 limits assumed, chain 2 of 2): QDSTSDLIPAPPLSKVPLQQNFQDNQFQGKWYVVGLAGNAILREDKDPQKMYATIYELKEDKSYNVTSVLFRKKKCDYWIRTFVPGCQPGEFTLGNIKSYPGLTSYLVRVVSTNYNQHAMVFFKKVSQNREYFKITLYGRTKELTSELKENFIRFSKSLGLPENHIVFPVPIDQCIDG
Binder,"efficacy of inhibition, MMP3/MMP9 assay with neutrophil-derived MMP9 [%]","efficacy of neutralisation, APMA-activated neutrophil-derived MMP9, OmniMMP RED cleavage [%]"
B8,100,100
B9,25,–

# Target: T3, neutrophil-derived human monomeric MMP9 (human, UniProt P14780 20-707)
# Assay: cell-based or functional assay
# T3 sequence (P14780 20-707): as the sequence (P14780 20-707) above
Binder,"efficacy of inhibition, MMP3/MMP9 assay with neutrophil-derived MMP9 [%]","efficacy of neutralisation, APMA-activated neutrophil-derived MMP9, OmniMMP RED cleavage [%]"
B8,100,100
B9,25,–

# Target: T4, human MMP9 (i.e. activated MMP9), catalytically active caspase-cleaved recombinant MMP9 (human, UniProt P14780 107-707)
# Assay: cell-based or functional assay
# T4 sequence (P14780 107-707): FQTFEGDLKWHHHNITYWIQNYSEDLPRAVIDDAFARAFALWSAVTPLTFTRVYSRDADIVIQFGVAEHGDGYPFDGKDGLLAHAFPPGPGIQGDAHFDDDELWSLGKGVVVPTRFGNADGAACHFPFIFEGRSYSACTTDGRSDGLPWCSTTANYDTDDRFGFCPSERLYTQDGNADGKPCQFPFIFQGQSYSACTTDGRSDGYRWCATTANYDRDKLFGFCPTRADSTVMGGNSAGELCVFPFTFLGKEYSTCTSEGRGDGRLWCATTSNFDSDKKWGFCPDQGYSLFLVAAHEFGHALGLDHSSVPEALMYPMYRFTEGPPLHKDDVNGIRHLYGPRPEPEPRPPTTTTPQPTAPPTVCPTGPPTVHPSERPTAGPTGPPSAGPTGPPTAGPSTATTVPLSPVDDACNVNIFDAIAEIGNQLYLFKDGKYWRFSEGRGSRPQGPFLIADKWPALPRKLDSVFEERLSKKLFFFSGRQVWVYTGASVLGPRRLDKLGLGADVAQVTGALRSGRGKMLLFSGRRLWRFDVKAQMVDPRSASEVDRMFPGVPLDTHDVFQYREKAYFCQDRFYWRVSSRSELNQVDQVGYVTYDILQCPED
row,Binder,"IC50, DQ-gelatin digestion, MMP9 assay with highly purified activated MMP9 [nM]"
1,B8,2.6

# Target: T5, recombinant human proMMP9 (full length, latent form) (human, UniProt P14780 20-707)
# Assay: cell-based or functional assay
# T5 sequence (P14780 20-707): as the sequence (P14780 20-707) above
row,Binder,"IC50, DQ-gelatin digestion, MMP3/MMP9 assay [nM]"
1,B9,0.2

# Target: mouse proMMP9 (mouse, UniProt P41245 20-730)
# Assay: cell-based or functional assay
# mouse proMMP9, sequence (P41245 20-730): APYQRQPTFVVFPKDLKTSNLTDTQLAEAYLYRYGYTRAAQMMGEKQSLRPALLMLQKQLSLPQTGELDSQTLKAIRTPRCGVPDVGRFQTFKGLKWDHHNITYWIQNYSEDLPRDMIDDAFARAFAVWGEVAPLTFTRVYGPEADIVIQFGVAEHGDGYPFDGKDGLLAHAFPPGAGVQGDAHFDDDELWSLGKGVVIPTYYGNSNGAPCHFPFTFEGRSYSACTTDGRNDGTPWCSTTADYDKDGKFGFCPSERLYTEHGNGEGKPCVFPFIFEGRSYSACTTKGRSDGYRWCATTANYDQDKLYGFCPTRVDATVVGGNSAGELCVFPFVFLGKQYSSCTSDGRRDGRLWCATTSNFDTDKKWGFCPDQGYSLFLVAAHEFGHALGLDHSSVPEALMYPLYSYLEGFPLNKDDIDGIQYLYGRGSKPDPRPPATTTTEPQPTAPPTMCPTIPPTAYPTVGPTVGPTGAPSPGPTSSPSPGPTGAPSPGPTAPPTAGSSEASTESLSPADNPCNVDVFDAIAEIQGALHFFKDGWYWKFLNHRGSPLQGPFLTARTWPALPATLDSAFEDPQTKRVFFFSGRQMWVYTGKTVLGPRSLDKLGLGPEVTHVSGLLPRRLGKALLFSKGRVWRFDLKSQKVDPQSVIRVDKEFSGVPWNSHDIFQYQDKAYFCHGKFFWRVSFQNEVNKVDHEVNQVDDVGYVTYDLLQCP
Binder,"Efficacy, MMP3/MMP9 gelatin assay [%]","IC50 (nM), MMP3/MMP9 gelatin assay [nM]"
B1,25,38.8
B2,–,> 500
B3,100,7.91
B4,100,462
B5,100,11.1
B6,100,12.7
B7,100,7.69
B8,100,7.8

# Target: mouse active MMP9 (mouse, UniProt P41245 108-730, limits assumed)
# Assay: cell-based or functional assay
# mouse active MMP9, sequence (P41245 108-730 limits assumed): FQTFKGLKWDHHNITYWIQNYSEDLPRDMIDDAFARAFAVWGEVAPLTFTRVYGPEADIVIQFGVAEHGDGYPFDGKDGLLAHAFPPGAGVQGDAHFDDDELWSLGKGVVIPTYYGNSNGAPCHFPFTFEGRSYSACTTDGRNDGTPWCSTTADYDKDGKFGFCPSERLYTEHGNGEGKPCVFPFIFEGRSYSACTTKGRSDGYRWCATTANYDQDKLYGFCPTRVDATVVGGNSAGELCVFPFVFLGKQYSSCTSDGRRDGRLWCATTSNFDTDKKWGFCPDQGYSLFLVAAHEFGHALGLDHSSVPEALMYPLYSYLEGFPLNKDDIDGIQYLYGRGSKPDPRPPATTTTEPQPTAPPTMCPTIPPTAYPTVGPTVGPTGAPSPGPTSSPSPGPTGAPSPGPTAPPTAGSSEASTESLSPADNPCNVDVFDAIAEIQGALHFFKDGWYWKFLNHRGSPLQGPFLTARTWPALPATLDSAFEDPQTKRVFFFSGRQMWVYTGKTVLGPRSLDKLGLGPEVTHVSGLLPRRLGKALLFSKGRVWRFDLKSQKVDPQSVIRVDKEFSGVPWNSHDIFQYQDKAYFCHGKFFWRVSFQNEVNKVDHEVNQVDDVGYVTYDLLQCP
Binder,"Efficacy, MMP9 gelatin assay [%]","IC50 (nM), MMP9 gelatin assay [nM]"
B1,100,333
B2,–,> 500
B3,100,0.86
B4,100,164
B5,100,1.91
B6,100,2.37
B7,100,1.2
B8,100,1.27

# Target: T1, neutrophil-derived human dimeric MMP9
# Assay: cell-based or functional assay
# Remark: another data set of the same source
row,Binder,IC50 (read off the curve) [nM]
1,B8,~0.5

# Target: T2, neutrophil-derived human NGAL/MMP9 …
# Assay: cell-based or functional assay
# Remark: another data set of the same source
row,Binder,IC50 (read off the curve) [nM]
1,B8,~2
2,B9,~1

# Target: T3, neutrophil-derived human monomeric MMP9
# Assay: cell-based or functional assay
# Remark: another data set of the same source
row,Binder,IC50 (read off the curve) [nM]
1,B8,~2
2,B9,~1

# Target: MMP3-activated recombinant human MMP9 (human, UniProt P14780 107-707)
# Assay: SPR (BIAcore), antibody captured by anti-human Fc, antigen titrated 4.7-150 nM
# Protocol: (§1) In a second step, pro-MMP9 or MMP3-activated MMP9 were titrated from 4.7 to 150 nM in 2-fold dilutions.
# MMP3-activated recombinant human MMP9, sequence (P14780 107-707): as the sequence (P14780 107-707) above
row,Binder,Kd [nM]
1,B8,11.7
2,B9,5

# Target: T5, recombinant human proMMP9 (full length, …)
# Assay: as above
# Protocol: as §1
row,Binder,Kd [nM]
1,B9,0.9

# Target: T5, recombinant human proMMP9 (full length, …)
# Assay: SPR (BIAcore), antibody captured by anti-human Fc, antigen titrated 4.7-150 nM; SPR (BIAcore), antibody captured by anti-human Fc, pro-MMP9 up to 150 nM; lower bound estimated from <1% binding
# Protocol: as §1
row,Binder,Kd [nM]
1,B8,> 15000

# Target: T1, neutrophil-derived human dimeric MMP9
# Assay: cell-based or functional assay
# Remark: another data set of the same source
row,Binder,IC50 (read off the curve) [nM]
1,B8,~10

# Target: T3, neutrophil-derived human monomeric MMP9
# Assay: cell-based or functional assay
# Remark: another data set of the same source
row,Binder,IC50 (read off the curve) [nM]
1,B8,~10

# Target: T4, human MMP9 (i.e. activated MMP9), …
# Assay: cell-based or functional assay
# Remark: another data set of the same source
Binder,"Efficacy, DQ-gelatin digestion, MMP9 assay [%]","IC50 (nM), DQ-gelatin digestion, MMP9 assay [nM]"
B1,100,1.92
B2,100,3.16
B3,100,3.92
B4,100,1.3
B5,100,3.86
B6,100,2.92
B7,100,2.64
B8,100,0.97

# Target: T5, recombinant human proMMP9 (full length, …)
# Assay: cell-based or functional assay
# Remark: another data set of the same source
Binder,"Efficacy, DQ-gelatin digestion, MMP3/MMP9 assay [%]","IC50 (nM), DQ-gelatin digestion, MMP3/MMP9 assay [nM]"
B1,100,9.05
B2,100,15.2
B3,100,44
B4,100,5.48
B5,100,38.1
B6,100,20.4
B7,100,23.7
B8,100,9.52

# Target: Cynomologus monkey (cyno) proMMP9 (Cynomologus monkey)
# Assay: cell-based or functional assay
Binder,"Efficacy, MMP3/MMP9 gelatin assay [%]","IC50 (nM), MMP3/MMP9 gelatin assay [nM]"
B1,100,3.85
B2,100,12.5
B3,100,29.9
B4,100,3.75
B5,100,27.6
B6,100,10.8
B7,100,15.8
B8,100,5.86
